Experiments:
[1] = OTA detoxification activity assay (specific activity, fluorescence reduction ex/em 390/450 nm); format: biochemical; details: SEQ ID NO: 1 = 100%
In short: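 Recombinant enzyme preparation with 200 ng/mL OTA in 100 mM sodium phosphate, at pH 6.0 and pH 7.5, 37° C. Degradation followed as the fall in fluorescence at ex/em 390/450 nm. Specific activity taken from the initial linear slope; one unit degrades 1 μmol OTA per min at a starting OTA of […].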

[2] = Enzymatic activity comparison: activity remaining after 65° C. for 10 min at pH 6.0, relative to SEQ ID NO: 1; format: physicochemical
Description: To compare the temperature behavior and thermostability of selected enzymes to one another, enzyme was incubated at 65° C. for 10 min at pH 6.0. The enzymatic activity remaining after incubation was compared to the remaining activity of the enzyme of SEQ ID NO: 1 after incubation, the latter being set to 100%, see Table 16.

Molecule | Specific OTA detoxification activities in % compared to the enzyme of SEQ ID NO: 1, pH 6.0 [1] | Specific OTA detoxification activities in % compared to the enzyme of SEQ ID NO: 1, pH 7.5 [1] | Enzymatic activity remaining after incubation, compared to SEQ ID NO: 1 (set to 100%) [2]
187 (protein, exemplary polypeptide) MTTRTRILTAFLSLLAANACAADAAPAAPHTVVLRAARMFDGASGKLVDHPQLTIVGNKIVRIAQGDKAEVPAGAEVVDLGDATLLPGFIDAHVHLSGQSSDNWYGDFFDNMMRFPAEQALYGAYYARITLEAGFTSVRDVGSTDWVALGLRNAIDAGKVPGPRMLVSNYAVGSTGGHADQDPIPPHKLPLAGPLQGVCNGPEECRAAVRYQIKYGANVIKFMPSGGVLSLSDPVDAPELSQDEMNAVIGESHAWGRKVAAHAHGDKAAKMAVAAGVDSIEHGSFIEDDTLRAMKAKNVYLVPTISAIAHVEEKIGTFPPVIAEKGRAAAAHMRQTFRHAVQIGVPIALGTDAGVGAHGSNAREFRYMVENGLTPAQALLAGTANAARLLGTFDRVGTLEAGKLADVVAVPGNPIADITVTERPLFVMKDGVVVRRDAVR | 51% | 58% | 36%
194 (protein, exemplary polypeptide) MTTRTRILTAFLSLLAANACAADAAPAAPHTVVLRAARMFDGASGKLVDHPQLTIVGNKIVRIAQGDKAEVPAGAEVVDLGDATLLPGFIDAHVHLSGQSSDNWYGDFFDNMMRFPAEQALYGAYYARITLEAGFTSVRDVGSTDWVALGLRNAIDAGKVPGPRMLVSNYAVGSTGGHADQDPIPPHKLPLAGPLQGVCNGPEECRAAVRYQIKYGANVIKFMPSGGVLSLSDPVDAPELSQDEMNAVIGESHAWGRKVAAHAHGDKAAKMAVAAGVDSIEHGSFIEDDTLRAMKAKNVYLVPTISAIAHVEEKIGTFPPVIAEKGRAAAAHLRQTFRHAVQIGVPIALGTDAGVFAHGSNAREFRYMVENGLTPAQALLAGTANAARLLGTFDRVGTLEAGKLADVVAVPGNPIADITVTERPLFVMKDGVVVRRDAVR | 78% | 52% | 45%
193 (protein, exemplary polypeptide) MTTRTRILTAFLSLLAANACAADAAPAAPHTVVLRAARMFDGASGKLVDHPQLTIVGNKIVRIAQGDKAEVPAGAEVVDLGDATLLPGFIDAHVHLSGQSSDNWYGDFFDNMMRFPAEQALYGAYYARITLEAGFTSVRDVGSTDWVALGLRNAIDAGKVPGPRMLVSNYAVGSTGGHADQDPIPPHKLPLAGPLQGVCNGPEECRAAVRYQIKYGANVIKFMPSGGVLSLSDPVDAPELSQDEMNAVIGESHAWGRKVAAHAHGDKAAKMAVAAGVDSIEHGSFIEDDTLRAMKAKNVYLVPTISAIAHVEEKIGTFPPVIAEKGRAAAAHLRQTFRHAVQIGVPIALGTDAGVAAHGSNAREFRYMVENGLTPAQALLAGTANAARLLGTFDRVGTLEAGKLADVVAVPGNPIADITVTERPLFVMKDGVVVRRDAVR | 81% | 85% | 42%
189 (protein, exemplary polypeptide) MTTRTRILTAFLSLLAANACAADAAPAAPHTVVLRAARMFDGASGKLVDHPQLTIVGNKIVRIAQGDKAEVPAGAEVVDLGDATLLPGFIDAHVHLSGQSSDNWYGDFFDNMMRFPAEQALYGAYYARITLEAGFTSVRDVGSTDWVALGLRNAIDAGKVPGPRMLVSNYAVGSTGGHADQDPIPPHKLPLAGPLQGVCNGPEECRAAVRYQIKYGANVIKFMPSGGVLSLSDPVDAPELSQDEMNAVIGESHAWGRKVAAHAHGDKAAKMAVAAGVDSIEHGSFIEDDTLRAMKAKNVYLVPTISAIAHVEEKIGTFPPVIAEKGRAAAAHLRQTFRHAVQIGVPIALGTDALVGAHGSNAREFRYMVENGLTPAQALLAGTANAARLLGTFDRVGTLEAGKLADVVAVPGNPIADITVTERPLFVMKDGVVVRRDAVR | 82% | 22% | 19%
190 (protein, exemplary polypeptide) MTTRTRILTAFLSLLAANACAADAAPAAPHTVVLRAARMFDGASGKLVDHPQLTIVGNKIVRIAQGDKAEVPAGAEVVDLGDATLLPGFIDAHVHLSGQSSDNWYGDFFDNMMRFPAEQALYGAYYARITLEAGFTSVRDVGSTDWVALGLRNAIDAGKVPGPRMLVSNYAVGSTGGHADQDPIPPHKLPLAGPLQGVCNGPEECRAAVRYQIKYGANVIKFMPSGGVLSLSDPVDAPELSQDEMNAVIGESHAWGRKVAAHAHGDKAAKMAVAAGVDSIEHGSFIEDDTLRAMKAKNVYLVPTISAIAHVEEKIGTFPPVIAEKGRAAAAHLRQTFRHAVQIGVPIALGTDASVGAHGSNAREFRYMVENGLTPAQALLAGTANAARLLGTFDRVGTLEAGKLADVVAVPGNPIADITVTERPLFVMKDGVVVRRDAVR | 122% | 85% | 15%
188 (protein, exemplary polypeptide) MTTRTRILTAFLSLLAANACAADAAPAAPHTVVLRAARMFDGASGKLVDHPQLTIVGNKIVRIAQGDKAEVPAGAEVVDLGDATLLPGFIDAHVHLSGQSSDNWYGDFFDNMMRFPAEQALYGAYYARITLEAGFTSVRDVGSTDWVALGLRNAIDAGKVPGPRMLVSNYAVGSTGGHADQDPIPPHKLPLAGPLQGVCNGPEECRAAVRYQIKYGANVIKFMPSGGVLSLSDPVDAPELSQDEMNAVIGESHAWGRKVAAHAHGDKAAKMAVAAGVDSIEHGSFIEDDTLRAMKAKNVYLVPTISAIAHVEEKIGTFPPVIAEKGRAAAAHVRQTFRHAVQIGVPIALGTDAGVGAHGSNAREFRYMVENGLTPAQALLAGTANAARLLGTFDRVGTLEAGKLADVVAVPGNPIADITVTERPLFVMKDGVVVRRDAVR | 84% | 52% | 45%
192 (protein, exemplary polypeptide) MTTRTRILTAFLSLLAANACAADAAPAAPHTVVLRAARMFDGASGKLVDHPQLTIVGNKIVRIAQGDKAEVPAGAEVVDLGDATLLPGFIDAHVHLSGQSSDNWYGDFFDNMMRFPAEQALYGAYYARITLEAGFTSVRDVGSTDWVALGLRNAIDAGKVPGPRMLVSNYAVGSTGGHADQDPIPPHKLPLAGPLQGVCNGPEECRAAVRYQIKYGANVIKFMPSGGVLSLSDPVDAPELSQDEMNAVIGESHAWGRKVAAHAHGDKAAKMAVAAGVDSIEHGSFIEDDTLRAMKAKNVYLVPTISAIAHVEEKIGTFPPVIAEKGRAAAAHLRQTFRHAVQIGVPIALGTDAVVGAHGSNAREFRYMVENGLTPAQALLAGTANAARLLGTFDRVGTLEAGKLADVVAVPGNPIADITVTERPLFVMKDGVVVRRDAVR | 69% | 30% | 41%
